Assay results as given in the DeepSol protein solubility set.

Assay: soluble on expression in E. coli; label from the status in PepcDB or PDB records

| Sequence | soluble on expression in E. coli |
| --- | --- |
| MEINQKREEEDDDEMEWRRDGVKRDSNDFSNYCRQRSLSSDATIMSRQFFVYLIFHVLIDNVIARAPFTRDRPRGLGLLQLPTGMTDERSGPFFPGLYIAGDKAGQKPQTVPDVSLPGQTASFTGRSAFNPFTHMVSAVYTEDLVDAWGAGFAVNGVNNHGLNVRKNFDAFADAPLSSSDGMYQPFLSAASIGSEYDFSKIREVSGNFNLPIPGVNELFDFDGRFMVKGGGNGILNSAMEFPLTLSDPNERAPYTFKYLNYMADRHMHYGHVVPNVNLFVVGKDKIMERLMQNRLNPTMVG | not soluble |
| MEIRKKLVDPSKYCIKCPYTMNPEFITVHNTYNDATAENEVAYMIRNDNQVSFHIAVDDKEAVQGIPLERNAWHTGDGNGNGNRKSIGVEICYSLSGGDRYYKAEDNAAIVVAQLMKQYNIPIKKVRTHQSWSGKYCPHRMLAEGRWNNFIERVQNAYNGDGKVTPTLIPPSTNGTGIAYIEGNGINLRKGLGTGYGVIRQLGKGESYEVWGQSNGWLNLGGNQWIYNDSSYIRYTGESTPTSSQSVNNGVGIVTITADVLRVRKGPGTNYDIVKNVYQGEQYQSWGYRDGWYNVGGDQWVSGEYVKFED | not soluble |
| MEIRWMKSFVAVAEELNYGRAAEVLHIAQPAVSQQVQQLEKRLGVKLFDRTTRSVRLTAAGERFLQPCKDALAGIVRAVDAAVIADPAVEGRVRVGFSGAYGQTELSSLARSVRRRYPLIDLVLEGATVSGQILDEIWEGQLDLGIVSDAVSHPHVLTRQISVEYLSALLPSDHPLAERKSIDLAELRDETFVANPAATGSTLRRDLLAACRDAGFTPNIVQETTDGIVLTALVAAGVGVALVPGDVQTYPNRVVLVPLDAGRYEVRAALAWSDRPVSPVVQTVLDLAAEVLPSPDALAVEQ | not soluble |
| MEITKTDLFYNISEQQQAEMMHCFKTYTRTYKSGEVICFYDDNNIGVGIIESGSARVIHFLPNGTQTILEQLCRGDLFGQLFYHYACPESISLEATCDCVVRFIDYEHIIKRCSKACPHHSQLVNNILVIISDKTRSICEHLEVLSGRTIRDRLNNYFEILSSKSGSNTFKLPFTMTALADYLSVDRSAMSRELKKMKDEGLIQTNKGIVTINR | not soluble |
| MEIVRTKQFSLKPMDSEEAVLQMNLLGHSFYVYTDAETNGTNIVYSRKDGKYGLIETNLEHHHHHH | not soluble |
| MEKENTNGGSVYVTVDGHFKPVHVSMKGTGEKGFLEFMLEDVEKALKETEMPVIGMMYYNVPDMGIVPHLWEGNNDDYLQRLEKAMDGHGIKLHRYLRLSEVVYCL | not soluble |
| MEKFVLSLDEGTTSARAIIFDRESNIHGIGQYEFPQHYPRPGWVEHNPEEIWDAQLRAIKDAIQSARIEPNQIAAIGVTNQRETTLVWDKDGKPLYNAIVWQCRRTAEMVEEIKREYGTMIKEKTGLVPDAYFSASKLKWLLDNVPGLREKAEKGEVMFGTVDTFLIYRLTGEHVTDYSNASRTMLFNIKKLDWDDELLELFDIPESVLPEVRESSEVYGYTKKELLGAEIPVSGDAGDQQAALFGQAAFEAGMVKATYGTGSFILVNTDKMVLYSDNLLTTIAWGLNGRVSYALEGSIFVTGAAVQWLRDGIKIIKHASETEELATKLESNEGVYFVPAFVGLGAPYWDQFARGIIIGITRGTGREHLARATLEAIAYLTRDVVDEMEKLVQIKELRVDGGATANDFLMQFQADILNRKVIRPVVKETTALGAAYLAGLAVDYWADTREIAELWKAERIFEPKMDEKTRERLYKGWKEAVKRAMGWAKVVDSAKSN | soluble |
| MEKKIEKVRQFYTALAQGDFETVGALLSDDLVWHQPGQGALSGTYNGKQNVFAHLERMAQLSNGTFAIDQVDYVTDNGNLVAAAIAFAVSANGHSIEMKGVDLFNFENGFIKKVWLFSERIEEESRFWTALAQGC | not soluble |
| MEKKITLIPPPEFVQYVGGHFEEVGKEFMQYFIEIGNLKSNETVLDVGCGIGRMAVPLMNYLSDDGTYYGFDLFNKGITWCKNNISTRRNNFHFEHVDIYNQFYNPDGKEDASQYKFPYEDESFDFIFLTSVFTHLLPKELEHYVREIARVLKKDGRCFITFFLINPESSYYLNAGLSPLGFYHQIDNCYVLNKDIPNFAVAYPEEDIRTLLNKYGLEMQTPPHYGSWCGRTEHTSYQDIILAQKLEHHHHHH | not soluble |
| MEKPVFYLDRVGEENTEAVIGAAAKRAAELGISHIVVASTSGKTALKMAEAVKGSNIKVIGVSHQYGQKEKGEWEVGEEYRKKLEELGAVITTQSHMFSGIERSITKKFGGYSRIEVISDTLRSLFGKGFKVAIEVAIMAADSGHIPVSDDTEIIAIGGTRWGADVALVLRPAHSNDFFSLQVREIIAMPRAKEDLEHHHHHH | soluble |
| MEKREFPVSDRIFPEVSIPYGDKSTKAMQITCACCGAVAYFPHQTGVNRKPPIAATQHFQNKGWVVGGNPRKDFCPIHAAPAKRKGQKAMVDTVATIADKPREMSREDRRIINDKLDEVYAKDAYKSPWTDSAVAKDLGVPRDWVAQVRDQFFGPAGSNPLYDEFLKETKLVEGAFLACEEATARAEKAAADQRRAHGDLCKAMDSYRVLARKVEREISR | not soluble |
| MEKYIHSVEDYHRLISYLENNLNYEDSVVNHVIYVIAKTGMRYGEIIGLTNNDTSLDEHYLHTYKRYNTSTWKWTNAKNESSKRYIPIDDKIVAALSNMIKERERINSLLRIKNKEEFLFFHYGLEHGIPSVATVNKALKKILKKLDIEPIITTKGLRHTYGSYLLHNNIDMGVVARILGHKDIQMLIQVYGHTLTEKIDKEFKEVEQIMNRILEHHHHHH | not soluble |
| MEKYQALLANNVENTAKEALHQLAYTGREYNNIQDQIETISDLLGHSQSLYDYLREPSKANLTILENMWSSVARNQKLYKQIRFLDTSGTEKVRIKYDFKTSIAGPSLILRDKSAREYFKYAQSLDNEQISAWGIELERDKGELVYPLSPSLRILMPISVNDVRQGYLVLNVDIEYLSSLLNYSPVRDFHIELVKHKGFYIASPDESRLYGDIIPERSQFNFSNMYPDIWPRVVSEQAGYSYSGEHLIAFSSIKFVSNEPLHLIIDLSNEQLSKRATRDINDLIQESLEHHHHHH | soluble |
| MELDGKAPSHRNLNVQTWSTAEGAKVLFVEARELPMFDLRLIFAAGSSQDGNAPGVALLTNAMLNEGVAGKDVGAIAQGFEGLGADFGNGAYKDMAVASLRSLSAVDKREPALKLFAEVVGKPTFPADSLARIKNQMLAGFEYQKQNPGKLASLELMKRLYGTHPYAHASDGDAKSIPPITLAQLKAFHAKAYAAGNVVIALVGDLSRSDAEAIAAQVSAALPKGPALAKIEQPAEPKASIGHIEFPSSQTSLMLAQLGIDRDDPDYAAVSLGNQILGGGGFGTRLMSEVREKRGLTYGVYSGFTPMQARGPFMINLQTRAEMSEGTLKLVQDVFAEYLKNGPTQKELDDAKRELAGSFPLSTASNADIVGQLGAMGFYNLPLSYLEDFMRQSQELTVEQVKAAMNKHLNVDKMVIVSAGPTVAQKPLEHHHHHH | soluble |
| MELKARAVGVEIIPKGKIIYYSVPNGDEYERGDLVLVLGDFGLEVGKVLIPPREVVIDEVGYELKAVIRKLTDEDLEQYRKNVEDALKAFQICKQKIKEHGLPMKLLYAKYTFDRTRLIFFFSAEGRVDFRELVRDLAKIFKTRIELRQVGVRDEMKFFGGLGLCGLPTCCSTFLREFTSVTLKHAKKQQMMINPAKISGPCRRLLCCLTYEYDFYEKELEGIPDEGSTITYEGKRYKVVNVNVFLRTVTLFSEQEGEMIKLPFDYFRKGE | soluble |
| MELTMAKELIFIDWDDTLVNRENAEDFESVTDENNTIYQMSPMFIGAVEALKQLQEKYHVVIVSSRGDLNRLRQLQLQSYDLESSIMPLENFTFEDNDNRLLFTRYGETNFPDKASFILYIQKMSGNKIKVFIDDDHTEIEAAQSKGIPTIHATHNKYLQNTEQFFSGLIHQVDNMELSHIFNKVAAEIRNNSRSISWGRQIAGFFSVHLPIAQSLENLASKLQRKSANEVSEEFDQYLKKIAYDPNKKGDIAVSLTKAKTAIDKHISAPIEIKEDQPFLNRMI | not soluble |
| MEMSLEEFKTMFKTVMKKEFEDELHRITEPGKSKMAIERYIQGINLLDKKCILDNDENHNVLFKFAPIDQDFAHSSTNLSTPSPLEEESARENNHEAQELDITERIARMNLIGGSEFQMQYSSFLTAVSTKPSTDASLKKEARRLAEIWWAKNLRFFPQTMYVLQKLDQKNPDGFNYTDFEEEVQKVIPRSWIQNHHSFTLLSLLNEESLYVKFNLIMPSDSENMNRVKVNQVIKFLGFHEIGDCEFSMIYQYVSSKSASESTYSIHKFMCEDFPGWETQYNNEKKSMDRIFEIIIQEQKLFWTEYDYHTYKRHAYKIAVPMVFSLNIVDKAVGVRSDAR | not soluble |
| MENFAVIDLGSNSCRMTITQIQEDGSYAVTHRLKEMVRLSENENATDTPTLQAEAIDRTIAALKSFAAVYKDLPNLTIKAVATAATRKASNQKKFLKRVKNDVGLDIEVIPGTTEAYYDYLGVVNTLPTTNCVMVDTGGGSCELVLIVNGQAKDLISLPIGAVSLSEKFGLNDQVTASQLFKTMTFVDKIFNSVWWLRNGLNLPLVCLGGSNRTLAKINRRKCNILNFEDIHGYRLRDNAIYDTFNTVISQDAAGRAAIPGLAKDRADIIVGGMIPAISLMRFLDSDRMIFSQNGLREGILFEHLTALAEQSAKVSELEHHHHHH | not soluble |
| MENKEVIIIGAGAAGVGMGVALKDFGINNFAILERKQVGNSFIKWPEQTRFITPSFTSNGFGMPDLNAIAIDTSPSYTLGEERLSGKDYAKYLQLVSEEYKLPIKTNCKVQSIKKEKTGYLLETTKGFIYAEYVIFAMGEFSFPNKSSIKGAYKNSLHYGEINSWIEIKGDKQTIIGGNESAIDAAIELAKLGKRVTIYTDTLGLNIRDADPSKRLAPRTRQRFFDLRVNQKKLDSIKIYTTTKVKKIEKKSTSYILITENGKSLPVENIPILCTGFKNGTKSITASLFKYKENGEVLLNDFDESTIAKNIFLTGPNVRKGNTIFCYIYKFRQRFAVIANEIARRKHITIDEKKLSYYKNQSFYLDGCSGCEVRCSCLEHHHHHH | soluble |
| MENKHNPTSHTSHTWSELPELNPCVPLGTLLPDKSCPKTHPLADLIPPRQQQQFMHGNSWKLAPYGRSMIMRYAMQVRGQLAPTVLGINRTWKGDTCWNQIPKTSDCFHMVYKDHKLYFLNKTGSFKIFDFCGDIPQQTFEWSVKVERSQFGPPPPSNPWKVLATKLVVTVTGKVLKVEEMGGARPRTWSFRVFESMLLDQGITVLANDTGGFIRNTIYFSASHGNNTHDIYIFNLETQKTEPLHTLDSYSSSVQFYGAQWFVPSFKH | soluble |
| MENKSPMKGSEAENAKDQLKKKTAEEFAQMAIINRAFSAESTEDPPPLAQKRSESTLKPLNDELKSVPLVRAFNSAENQLDPKNQNAAKK | not soluble |
| MENQPKLNSSKEVIAFLAERFPHCFSAEGEARPLKIGIFQDLVERVGGEMNLSKTQLRSALRLYTSSWRYLYGVKPGATRVDLDGNPCGELEEQHVEHARKQLEEAKARVQAQRAEQQAKKREAAAAAGEKEDAPRRERKPRPVARRKEGAERKPRADKPTTKAPRAPREEKHTPVSDISVLTVGQSLKVKAGNNAMDATVLEITKDGVRVQLNSGMSLIVRAEHLVF | not soluble |
| MENRKLAVLIDADNAQSSLIAELLAEVAKYGTAIVKRAYGDWTTTQLKGWKEVLHQYAISPIQQFAYTKGKNSTDSALIIDAMDLLYTGNFDGFCLVSSDSDFTRLATRLREGGLTVIGLGEQSKTPRPFIAACDKFVFTEILRPAPPAKPKPETAATADKPKARSSRTRAKAAPHKEKHPLQDMFTSAIEAVARDSGWAELSAVGSYLAKNDPSFDPRNWGHGRLSQMVKKLDFLTVQESRNGSKLHSEIRLRHDGEAAVAEPAAPVETPQPSPSEEAAPPPRKKRSPRKKISPAGLEHHHHHH | soluble |
